Measurements: article PMC6751202, “An aggregon in conductin/axin2 regulates Wnt/β-catenin signaling and holds potential for cancer therapy” (Nature Communications, 2019)

Molecular target: the molecule itself
Assay: native gel or EMSA; recombinant GST-RGS Cdt and GST-RGS Cdt QV-PS purified from bacteria; PAGE under non-denaturing conditions, Western blot

B1: GST-RGS Cdt (domain or fragment, mouse, UniProt O88566 67-208, looked up)
chain: GRASPDSPLTRWTKSLHSLLGDQDGAYLFRTFLEREKCVDTLDFWFACNGFRQMNLKDTKTLRVAKAIYKRYIENNSVVSKQLKPATKTYIRDGIKKQQIGSVMFDQAQTEIQAVMEENAYQVFLTSDIYLEYVRSGGENTA
notes: RGS domain of mouse conductin/axin2, amino acids 67-208; Cloned into pGEX-6P-1, which as far as I know puts GST at the N-terminus; GST itself can dimerise; also called isolated conductin RGS domain; recombinant GST-RGS Cdt; source: Rosetta (DE3) bacteria, purified (glutathione beads, eluted with free glutathione)
B1: binds.
